From the supplement of paper PMC9170038

System: MS2 coat protein
Experiment: apparent KD of MS2 coat protein; designed switch direction (-1 OFF switch, 1 ON switch): -1; higher = weaker reporter binding
Outline: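 Transcription of designed RNA switches on Illumina chips was done by stalled E. coli RNA polymerase. SNAP-549-labelled MS2 coat protein was then titrated in doubling steps from 0.7 or 1.5 nM to 3 µM, with steps of 0.8–1.5 h at the lowest and 10–20 min at the highest concentration. The per-design median over clusters of curve-fitted normalised fluorescence is reported as apparent KD.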

[1] = Eterna round: R95, input ligand: FMN 200 uM
[2] = Eterna round: R95, input ligand: microRNA oligo, concentration not stated
[3] = Eterna round: R95, input ligand: none
[4] = input ligand: microRNA oligo, concentration not stated

Sequence	apparent KD of MS2 coat protein [1] [nM]	apparent KD of MS2 coat protein [2] [nM]	apparent KD of MS2 coat protein [3] [nM]	apparent KD of MS2 coat protein (input ligand: FMN 200 uM) [nM]	apparent KD of MS2 coat protein (input ligand: none) [nM]	apparent KD of MS2 coat protein [4] [nM]
UAUUACUCAGGAUAUAUGAUGUGAAACAUGAGGAUCACCCAUGUAAUAUUAUGGAUGUAAAUAGAAGGGAGAUUAU [Mat - Exclusion 5 - JL mod - D19] (puzzle: Exclusion 5)	49.2	51.8	64.6			
UAUUAGCAAGCAAAUGGGUACAUGAGGAUCACCCAUGUGCUCGUCUUAUAAGGUACUGUGACGAACGUCACGGUACC [mod--Eli5] (Eterna round: R97, puzzle: Sensor, turn-off variant 1)				27.8	26.8	
UAUUAGCAAGCAAGAUCCUACAUGAGGAUCACCCAUGUGCUCGUCUUAAACGCAGAAUUACUGCGAGCUCGUCUUAU [Winner reversed engineered 25] (Eterna round: R97, puzzle: Sensor, turn-off variant 1)				579	849	
UAUUAGCUAGGAUAUACAUGAGGAUCACCCAUGUCACGGGUCCACUCAUCCUAUGCGUGUAGAAGGAGCGACCC [JL Ceriza mod 1] (puzzle: Exclusion 3)		23.6				
UAUUAGCUAGGAUAUACAUGAGGAUCACCCAUGUCACGGGUCCACUCGUCCUAUGCGUGUAGAAGGAGCGACCC [JL Ceriza mod 2] (puzzle: Exclusion 3)		20.6				
UAUUAGCUUGCGAGAUCCGACAUGAGGAUCACCCAUGUGCUCGUCUUAUAUGGGAGGGAGGGAAAACCCUCCCUCCC [mod-Eli] (Eterna round: R97, puzzle: Sensor, turn-off variant 1)				23.8	25.4	
UAUUAGUAAGGAUAUCCUUGCAUGGACGAAAGUCCAUGCAAGGAGAAGGUACAUGAGGAUCACCCAUGUUUAUU [Mod of Fisker 15 - Jieux - Exclusion 4] (Eterna round: R97, puzzle: Exclusion 4)				18	17.4	
UAUUAGUGAGGAUAUGGUAUAGAUAAGAUGAUGAAAGAACUCCAGAAGGCACAUGAGGAUCACCCAUGUAGUAG [JL-ex4-2.08 Jieux mod] (puzzle: Exclusion 4)	20.4	23.7	20.9			
UAUUUACAUGAGGAUCACCCAUGUCAGGAUAUGCUCGAUAUAUGGAAACAUAUAUCGAGCAGAAGGGACUAGCG [Jieuxxlusion 7 - Jieux - Exclusion 1] (Eterna round: R97, puzzle: Exclusion 1)				152	72.7	
UAUUUAUAUGAAGGAUAUACUUAACAUGAGGAUCACCCAUGUGGUGUUGUGAGUGAGUGAGUUUAGUAGAAGGUCAAUUCUUUU [JMF's solution 96] (Eterna round: R96, puzzle: Exclusion NG 2)				893	448	415
UCAAACAUCGUUAGGAUAUGCUGGACUAAAUAGUGGCAGAAGGAACAUGAGGAUCACCCAUGUGCCUCGAUUGC [Eternabot (L2) Solution 26] (Eterna round: R97, puzzle: Brourd's mod of Exclusion 4)				17.4	13.4	
UCAAGCUUUAAGCGCGUGAACAUGAGGAUCACCCAUGUAUUUCGGGUUUUGGUUUUUUGUAUGGGUUCUUGUCUUAU [JR_SWV3TOV1_Sub096] (puzzle: Sensor v3, turn-off variant 1)	39.2	19.2	41.8			
UCAAGUAUGUAGGAUAUCGAUGUCCUCGGACAUCGAGAAGGACGUACAUGAGGAUCACCCAUGUAACUUGCAUG [Exclusion 6 - B - 10:b] (puzzle: Exclusion 6)		44.3				
UCACACGGAGGAUAUACCGUCGGUCAUUGGUGUGACGUAUCACAUGAGGAUCACCCAUGUAGAAGGCCGUGCUU [Eternabot (L2) Solution 14] (Eterna round: R97, puzzle: Exclusion 2)				394	208	
UCACGGGACUGAGGAUAUACAUGAACCAUGGUUGUAGAAGGCAGAAGGUUGGAUCAUACACUAAACAUGAGGAUCACCCAUGUU [JR_ExcNG1_Sub028] (Eterna round: R96, puzzle: Exclusion NG 1)				16.4	21.8	15.7
UCACGGGACUGAGGAUAUACAUGAACCAUUUUUGUAGAAGGCAGAAUGUUAGAUCAUACACUAAACAUGAGGAUCACCCAUGUU [JR_ExcNG1_Sub025] (Eterna round: R96, puzzle: Exclusion NG 1)				15.1	19.7	18.8
UCACGGGACUGAGGAUAUACAUUUAUUAUUUUAGUAGAAGGCAGAAAGUUAGUUUUUUCACUAUACAUGAGGAUCACCCAUGUU [JR_ExcNG1_Sub085] (Eterna round: R96, puzzle: Exclusion NG 1)				21.2	29.1	20.4
UCACGUUAGGAGGAUAUCGAUCCAUUAGCGCGACGAGAAGGCCUGACAUGAGGAUCACCCAUGUGGUCAAACAA [Bexelaar] (puzzle: Exclusion 6)	52.1	265	158			

Sequence	apparent KD of MS2 coat protein [1] [nM]	apparent KD of MS2 coat protein [2] [nM]	apparent KD of MS2 coat protein [3] [nM]	apparent KD of MS2 coat protein (input ligand: FMN 200 uM) [nM]	apparent KD of MS2 coat protein (input ligand: none) [nM]	apparent KD of MS2 coat protein [4] [nM]
UCAGGCGAUGUCAGGAUAUCGGCUGCCCAAUUGGCUGAGAAGGGACAUGAGGAUCACCCAUGUUAGAUCCAGCC [BmEX4 A.25] (Eterna round: R97, puzzle: Brourd's mod of Exclusion 4)				30.2	16.9	
UCAUGGUAGCAGGAUAUGCUAGAAAUUUUUUAUGCAGAAGGGCUUACAUGAGGAUCACCCAUGUGUUAGGUCUA [JR_E6_Sub070] (puzzle: Exclusion 6)	47.2	50.8	48.5			
UCAUGGUAGCAGGAUAUGCUUGUAAUUUUUUUUGCAGAAGGGCUUACAUGAGGAUCACCCAUGUGUUAGGUCUA [JR_E6_Sub068] (puzzle: Exclusion 6)		30.7				
UCAUGUAUGUAGGAUAUCGAUGUCCUUGGACAUCGAGAAGGACGUACAUGAGGAUCACCCAUGUAACUUGCAUG [Exclusion 6 - B - 11:d] (puzzle: Exclusion 6)		18.7				
UCAUGUAUGUAGGAUAUCGAUGUCUGCGGACAUCGAGAAGGACGUACAUGAGGAUCACCCAUGUAACUUGCAUG [Exclusion 6 - B - 11:e] (puzzle: Exclusion 6)	31.9	17.8	13.1			
UCAUGUCCUGAGGAUAUGUAGCGGAUAAACGCAACAGAAGGCAGGACAUGAGGAUCACCCAUGUGUGCCUUCCA [Exclusion 6 Mod of JL of Mod of Letion by ViennaUCT] (Eterna round: R97, puzzle: Exclusion 6)				8.14	113	
UCCGAAGCAGGAUAUACAUGAGGAUCACCCAUGUGCUUGCAUGGCGUGGGAAGUCAUAGUAGAAGGGCUACGCC [jl-ex3-4.71 ViennaUCT mod] (Eterna round: R97, puzzle: Exclusion 3)				53.1	33.7	
UCCGUGUCAGGAUAUAACUGGUCGAGCGCAGAAGCGUCCUGUUAGAAGGGACAUGAGGAUCACCCAUGUUUAAC [Eternabot (L1) Solution 74] (Eterna round: R97, puzzle: Exclusion 4)				213	38.5	
UCCGUGUGAGGAUAUGCGAAUGACGAGUUACCUUGUCGCAAGCAGAAGGUACAUGAGGAUCACCCAUGUCCUAU [Eternabot (L1) Solution 61] (Eterna round: R97, puzzle: Exclusion 4)				27.8	20.4	
UCCUGACAUGAGGAUCACCCAUGUGAGGAUAUGUGGUUCGGGUCAACUCCCGUUCCGUGCAGAAGGCACAGGGC [EX1 A.29] (Eterna round: R97, puzzle: Exclusion 1)				26.4	16.2	
UCCUUGUUGGAGGAUAUGCAUAGCAUCACGCCUGUAGAAGGCCAAACAUGAGGAUCACCCAUGUGCAUGGGAUG [Eternabot (L1) Solution 77] (Eterna round: R97, puzzle: Exclusion 6)				244	216	
UCGAGGUCAGGAUAUACAUGAGGAUCACCCAUGUGGAUGUAAGGUAGGAGAAGAGUAGGUAGAAGGGACGAGAG [JR_Exclu3_Sub049] (puzzle: Exclusion 3)	46.7	37.8	55.4			
UCGAUGUGAGGAUAUAACAGGACGAACUCUUAAUAGUACGGUUAGAAGGCACAUGAGGAUCACCCAUGUGACGA [EX4 B.27] (Eterna round: R97, puzzle: Exclusion 4)				40.1	17.7	
UCGCUGCGAGGAUAUACAUGAGGAUCACCCAUGUGCGGGUCCGGGUCUUCGUCCAUUAGUAGAAGGCGCAGUGA [JL Laongeedie mod 4] (Eterna round: R96, puzzle: Exclusion 3)				705	119	112
UCGCUGCGAGGAUAUACAUGAGGAUCACCCAUGUGCGGGUCCGGGUCUUCGUCCAUUAGUAGAAGGCGCAGUGA [JL Laongeedie mod 4] (puzzle: Exclusion 3)		99.9				
UCGCUGCGAGGAUAUACAUGAGGAUCACCCAUGUGCGGGUCCGGGUCUUCGUCCAUUGGUAGAAGGCGCAGUGA [JL Laongeedie mod 6] (puzzle: Exclusion 3)		43				
UCGGCGUCAGGAUAUCCAAUAUAUGACAUGAGGAUCACCCAUGUUUCCACUCGUACCUCCGGAGAAGGGACGAAUA [Ex5 #91] (Eterna round: R97, puzzle: Exclusion 5)				30.9	35.7	
